Data taken from patent publication US20040052799A1, “Nucleic acid and amino acid sequences relating to Helicobacter pylori for diagnostics and therapeutics” (Astra Aktiebolag, priority 1996, published 2004).
Marks after values point to notes of the source that are not given here.

How the values were obtained:
[1] = target: T1, H. pylori peptidyl-propyl cis-trans isomerase (PPIase) (Helicobacter pylori, UniProt Q9ZJH5); assay: PPIase enzymatic assay, α-chymotrypsin coupled, succinyl-Ala-Ala-Pro-Phe-p-nitroanilide; assay type: biochemical
T1 construct: His-Tag (N); made in house; host or cells: E. coli BL21(DE3)
T1 sequence (Q9ZJH5 whole entry, looked up): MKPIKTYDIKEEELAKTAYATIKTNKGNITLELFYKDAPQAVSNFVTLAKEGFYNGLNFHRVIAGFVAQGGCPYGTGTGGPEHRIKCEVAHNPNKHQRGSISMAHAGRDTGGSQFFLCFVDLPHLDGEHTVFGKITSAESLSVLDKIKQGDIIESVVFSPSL
Text: The assay is essentially as described by Fisher (Fischer, G., et. al. (1984) Biomed. Biochim. Acta 43:1101-1111). The assay measures the cis-trans isomerization of the Ala-Pro bond in the test peptide N-succinyl-Ala-Ala-Pro-Phe-p-nitroanilide (Sigma # S-7388, lot # 84H5805). The assay is coupled with α-chymotrypsin, where the ability of the protease to cleave the test peptide occurs only when the Ala-Pro bond is in trans. The conversion of the test peptide to the trans isomer in the assay is followed at 390 nm on a Beckman Model DU-650 spectophotometer. The data are collected every second with an average scanning of time of 0.5 second. Assays are carried out in 35 mM Hepes, pH 8.0, in a final volume of 400 ul, with 10 μM α-chymotrypsin (type 1-5 from bovine Pancreas, Sigma # C-7762, lot 23H7020) and 10 nM PPIase. To initiate the reaction, 10 μl of the substrate (2 mM N-Succinyl-Ala-Ala-Pro-Phe-p-nitroanilide in DMSO) is added to 390 μl of reaction mixture at room temperature.
The PPIase activity was assayed using the chromogenic tetrapeptide substrate succinyl-Ala-Ala-Pro-Phe-p-nitroanilide. An initial velocity of 4.9 μmole/min/mg protein was measured with the purified enzyme (FIG. 5). This corresponds to a kcat of 1.6 sec^−1 which is similar to the one obtained for the E. coli PPIase (Liu, J. and Walsh, C. T. (1990) Proc. Natl. Acad. Sci. USA 87:4028-4032) and the one from porcine kidney (Fischer, G. (1989) Nature 337:476-478).
The recombinant protein has a high catalytic efficiency of 2.06×10^9 M^−1 s^−1 when the assay is measured at 25° C. These values are one to two orders of magnitude higher than that observed for other characterized PPIases. However, in those studies, the ppiase assay was conducted at 10° C., which may account for the discrepency.

H. pylori (strain AH244) = assay type: in vivo; details: BALB/c mice infected with strain AH244, 100 μg antigen + 10 μg CT orally, compared to control; FIGS. 3 and 4
[2] = test system: CD4+ or CD8+ T cells and IgA containing (IgACC) plasma cells in gastric tissue; assay: Local gastric immune response to immunization, immunostaining of gastric cryosections; assay type: in vivo, C57BL/6 mice
Text: Longitudinal sections of gastric tissues from the esophageal to the duodenal junction were embedded in OCT embedding compound, frozen in liquid nitrogen, and cryosections immunostained with monoclonal antibodies recognizing CD4^+ or CD8^+T cells or with antisera against mouse IgA for identification of IgA containing (IgACC) plasma cells (Pappo et al., Infect. Immun. 63:1246-1252, 1995). The degree of local gastric immune response was expressed quantitatively as the number of CD4^+, CD8^+ or IgACC cells per mm^2 of gastric region examined.
(§1) Protective activity of purified recombinant H. pylori vac36 (SEQ ID NO: 5146) antigen The ability of purified recombinant vac36 (SEQ ID NO: 5146) antigen derived from H. pylori to interfere with the establishment of an H. pylori infection was examined in mice. […]. The mice were challenged 2 weeks later on 3 consecutive days by oral administration of 10^8 H. pylori organisms. The experiment was terminated 2 weeks post-challenge, and the H. pylori infection level assessed by bacterial colony counts and by quantitative urease assays.

H. pylori = assay: Protective oral immunization and challenge with live H. pylori, quantitative urease assay and bacterial colony counts of gastric tissue; assay type: in vivo, C57BL/6 mice
Experimental: A murine model of H. pylori infection was produced by infection of C57BL/6 mice with H. pylori Sydney strain SS1 and was used to assess the efficacy of recombinant H. pylori vac36. […] Dose-response studies have shown 100% infection rates of inbred C57BL/6 and Balb/C mice at 8 weeks post-challenge with a single inoculation of […] organisms.
The presence of H. pyloriorganisms in gastric tissue was determined by culture of gastric tissue and by a quantitative urease assay. In the latter method, a longitudinal segment of antrum, representing approximately ¼ of the total antral region was placed in 1 ml of urea broth. After 4 hr, the extent of color change resulting from urea hydrolysis and increased pH was quantiated by spectrophotometric measurement of A550 (Fox et al., Immunol. 88:400-406, 1996). The assay sensitivity is ˜10^3 H. pylori organisms. A positive (H. pylori-infected) gastric tissue was defined as that sample showing 2 standard deviations above the mean A550 value derived from a group of unchallenged uninfected age-matched control mice.
as §1

[3] = mean number of cells/mm^2 of gastric region ± SEM, immunized mice upon challenge with H. pylori

B1: H. pylori PPIase: recombinant PPI from H. pylori expressed in E. coli using pET-28b (protein)
chain: FIAIIEHLNDKSLSQRFMMKPIKTYDIKEEELAKTAYATIKTNKGNITLELFYKDAPQAVSNFVTLAKEGFYNGLNFHRVIAGFVAQGGCPYGTGTGGPEHRIKCEVAHNPNKHQRGSISMAHAGRDTGGSQFFLCFVDLPHLDGEHTVFGKITSAESLSVLDKIKQGDIIESVVFSPSL
modifications: left off: small tags and cut ends
notes: recombinant PPI from H. pylori expressed in E. coli using pET-28b
catalytic efficiency ([1]; assay measured at 25° C.): 2.06e+09 M⁻¹ s⁻¹
kcat ([1]; purified recombinant enzyme): 1.6 s⁻¹
initial velocity ([1]; purified recombinant enzyme, substrate succinyl-Ala-Ala-Pro-Phe-p-nitroanilide): 4.9 μmole/min/mg protein

B2: SEQ ID NO: 465: H. pylori antigen of the therapeutic immunization study; number does not match the antigen list of Tables 6 and 7 (protein, listed as Helicobacter pylori)
chain: MGCSFIFKKVRVYSKMLVALGLSSVLIGCAMNPSAETKKPNDAKNQQPVQTHERMTTSSEHVTPLDFNYPVHIVQAPQNHHVVGILMPRIQVSDNLKPYIDKFQDALINQIQTIFEKRGYQVLRFQDEKALNVQDKKKIFSVLDLKGWVGILEDLKMNLKDSHSPI
modifications: double-stranded, circular; misc_feature (B) LOCATION 1...498; hypothetical: NO; anti-sense: NO
reduction and/or eradication of the H. pylori infection (therapeutic immunization effect) (H. pylori (strain AH244)): did not differ from control

B3: SEQ ID NO: 677: H. pylori antigen of the therapeutic immunization study; number does not match the antigen list of Tables 6 and 7 (protein, listed as Helicobacter pylori)
chain: SDCMALLEIIHYPSKILRTISKEVVSFDSKLHQQLDDMHETMIASEGIGLAAIQVGLPLRMLIINLPQEDGVQHKEDCLEIINPKWIETKGSIMYREGCLSVPGFYEEVERFEKVKIEYQNRFAEVKILEASELLAVAIQHEIDHLNGVLFVDKLSILKRKKFEKELKELQKKQKHK
modifications: double-stranded, circular; misc_feature (B) LOCATION 1...531; hypothetical: NO; anti-sense: NO
reduction and/or eradication of the H. pylori infection (therapeutic immunization effect) (H. pylori (strain AH244)): did not differ from control

B4: SEQ ID NO: 880: H. pylori antigen of the therapeutic immunization study; number does not match the antigen list of Tables 6 and 7 (protein, listed as Helicobacter pylori)
chain: YPCHKRFSLTHSQKESPQSNSPKGVKITLILVRKFKTPSINTLSNKIAIIITCCFLSESVKLLGYSGLKNFRILRMLETSSHFLKSFRLKRYIGFLLISLALLITPFVRIDGAHLFLISFEHKQLHFLGKNL
modifications: double-stranded, circular; misc_feature (B) LOCATION 1...396; hypothetical: NO; anti-sense: NO
degree of colonization of the antrum (H. pylori (strain AH244)): lower

B5: vac36: recombinant H. pylori outer membrane protein with terminal phenylalanine residue and C-terminal tyrosine cluster, aa SEQ ID NO: 5146, nt SEQ ID NO: 384 (protein, listed as Helicobacter pylori)
chain: MKQNLKPFKMIKENLMTQSQKVRFLAPLSLALSLSFNPVGAEEDGGFMTFGYELGQVVQQVKNPGKIKAEELAGLLNSTTTNNTNINIAGTGGNVAGTLGNLFMNQLGNLIDLYPTLKTNNLHQCGSTNSGNGATAAAATNNSPCFQGNLALYNEMVDSIKTLSQNISKNIFQGDNNTTSANLSNQLSELNTASVYLTYMNSFLNANNQAGGIFQNNTNQAYENGVTAQQIAYVLKQASITMGPSGDSGAAGAFLDAALAQHVFNSANAGNDLSAKEFTSLVQNIVNNSQNALTLANNANISNSTGYQVSYGGNIDQARSTQLLNNTTNTLAKVTALNNELKANPWLGNFAAGNSSQVNAFNGFITKIGYKQFFGENKNVGLRYYGFFSYNGAGVGNGPTYNQVNLLTYGVGTDVLYNVFSRSFGSRSLNAGFFGGIQLAGDTYISTLRNSPQLASRPTATKFQFLFDVGLRMNFGILKKDLKSHNQHSIEIGVQIPTIYNTYYKAGGAEVKYFRPYSVYWVYGYAF
modifications: misc_feature (B) LOCATION 1...527; hypothetical: YES
numbers of CD4+ T cells and of IgACC recruited in the gastric tissues ([2]; compared with unimmunized H. pylori-infected mice): Greater numbers
CD4+ antrum [2, 3]: 31 ± 8 cells/mm^2
CD4+ cardia [2, 3]: 33 ± 9^a cells/mm^2
CD4+ corpus [2, 3]: 54 ± 8 cells/mm^2
CD8+ antrum [2, 3]: 1 ± 1 cells/mm^2
CD8+ cardia [2, 3]: 3 ± 2 cells/mm^2
CD8+ corpus [2, 3]: 0 cells/mm^2
IgACC antrum [2, 3]: 67 ± 13 cells/mm^2
IgACC cardia [2, 3]: 24 ± 12 cells/mm^2
IgACC corpus [2, 3]: 79 ± 16 cells/mm^2
level of colonization by H. pylori, as assessed by gastric urease activity and bacterial count assays (H. pylori; C57BL/6 mice immunized orally, challenged with live H. pylori): significantly lower level of colonization
H. pylori burden (H. pylori; bacterial counts in gastric tissue, mean ± SEM, oral immunization 4 times weekly with 10 μg CT, challenge with 10^8 H. pylori, 2 weeks post-challenge): 55,800 ± 12,599 colony forming units
Urease Activity (H. pylori; mean A550 ± SEM of duplicate antral samples, n = 10 mice/group, oral immunization 4 times weekly with 10 μg CT, challenge with 10^8 H. pylori, 2 weeks post-challenge): 0.199 ± 0.080 A550
